Test results reported in article PMC4838878.

Columns and labels:
[1] = molecular target: Myc-Lphn3 with a C-terminal Avitag [mouse]; experiment: anti-GFP (mV) pull-down, quantified blot; conditions: lysate of HEK293 cells co-transfected with FLAG-FLRT2; averaged over 3-4 independent experiments; parent: 1.1; read off a plot
[2] = molecular target: HA-Unc5D with a C-terminal Avitag [rat]; experiment: anti-GFP (mV) pull-down, quantified blot; conditions: lysate of HEK293 cells co-transfected with FLAG-FLRT2; averaged over 3-4 independent experiments; parent: 1; read off a plot

Substance | response (normalized intensity) [1] | response (normalized intensity) [2]
HA-Unc5D mono-Venus fusion protein (HA-Unc5D-mV) mutant W89N; H91T [rat] / Myc-Lphn3 with a C-terminal Avitag [mouse] chain 1 W44N, chain 1 H46T | 0.35 | –
Myc-Lphn3-mV mutant R292N; R294T [mouse] / HA-Unc5D with a C-terminal Avitag [rat] chain 1 R273N, chain 1 R275T | – | 0.41
